This note sets out measurements from patent US20230057904A1 (Chugai, published 2023).

Assay [1] concerns the target T1, human CLDN4 (human, UniProt O14493 1-209).
T1 construct: also called hCLDN4; hCLDN4/BaF
T1 sequence: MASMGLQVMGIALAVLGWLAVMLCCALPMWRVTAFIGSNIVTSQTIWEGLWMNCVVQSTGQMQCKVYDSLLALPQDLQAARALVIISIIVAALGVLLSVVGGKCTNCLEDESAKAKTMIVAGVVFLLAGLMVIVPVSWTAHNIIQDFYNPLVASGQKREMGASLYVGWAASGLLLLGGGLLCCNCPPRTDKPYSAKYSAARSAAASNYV
Put plainly: flow cytometry, FreeStyle 293-F transfectants expressing human CLDN4, anti-human IgG Alexa Fluor 647; MFI. (Flow cytometry measures light scatter and fluorescence of single cells or particles in a stream.)

The next assay addresses T2, mouse CLDN9 (mouse, UniProt Q9Z0S7 1-217).
T2 construct: also called mCLDN9; mCLDN9/FS293
T2 sequence: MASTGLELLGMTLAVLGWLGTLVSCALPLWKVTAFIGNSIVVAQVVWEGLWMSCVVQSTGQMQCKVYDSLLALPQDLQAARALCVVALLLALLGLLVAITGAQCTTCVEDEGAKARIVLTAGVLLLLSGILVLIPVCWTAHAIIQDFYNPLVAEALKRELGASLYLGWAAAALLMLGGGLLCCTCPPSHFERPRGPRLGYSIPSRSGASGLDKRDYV
The assay can be described thus: flow cytometry, FreeStyle 293-F transfectants expressing mouse CLDN9, anti-human IgG Alexa Fluor 647; MFI. Here is the method:
(§1) Antibodies were mixed with FreeStyle™ 293-F cells transiently expressed human and mouse CLDN3, 4, 6, and 9 at final concentration of 10 micro g/mL. After 1 hour of incubation, cells were washed by 0.1% BSA containing D-PBS(−), and incubated in 5 micro g/mL of either Goat anti-Human IgG (H+L) Cross-Adsorbed Secondary Antibody, Alexa Fluor 647 (Invitrogen, A21445) or Goat anti-Mouse IgG (H+L) Highly Cross-Adsorbed Secondary Antibody, Alexa Fluor 647 (Invitrogen, A21236), for 1 hour. Cells were then washed with 0.1% BSA containing D-PBS(−), resuspended in 5 micro L of 0.1% BSA containing D-PBS(−), and analyzed by flow cytometer (iQue Screener, intellicyte).

The target in the next assay is T3, mouse CLDN6 (mouse, UniProt Q9Z262 1-219).
T3 construct: also called mCLDN6; mCLDN6/FS293
T3 chain: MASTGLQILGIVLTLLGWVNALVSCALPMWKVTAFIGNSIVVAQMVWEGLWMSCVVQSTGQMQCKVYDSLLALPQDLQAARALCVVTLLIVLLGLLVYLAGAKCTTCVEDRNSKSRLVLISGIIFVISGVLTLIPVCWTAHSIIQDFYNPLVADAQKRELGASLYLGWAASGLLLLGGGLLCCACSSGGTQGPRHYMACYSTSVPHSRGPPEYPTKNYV
Put plainly: flow cytometry, FreeStyle 293-F transfectants expressing mouse CLDN6, 10 micro g/mL antibody, anti-human IgG Alexa Fluor 647; MFI. Here is the method:
as §1

The target in a further assay is T4, mouse CLDN4 (mouse, UniProt O35054 1-210).
T4 construct: also called mCLDN4; mCLDN4/FS293
T4 sequence: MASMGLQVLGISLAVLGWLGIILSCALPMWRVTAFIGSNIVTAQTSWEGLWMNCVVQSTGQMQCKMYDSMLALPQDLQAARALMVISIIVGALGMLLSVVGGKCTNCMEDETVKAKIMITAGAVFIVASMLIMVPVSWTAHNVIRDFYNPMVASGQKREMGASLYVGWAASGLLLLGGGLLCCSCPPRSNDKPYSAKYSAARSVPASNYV
The assay can be described thus: flow cytometry, FreeStyle 293-F transfectants expressing mouse CLDN4, anti-human IgG Alexa Fluor 647; MFI. Here is the method:
as §1

In a further assay the target is T5, mouse CLDN3 (mouse, UniProt Q9Z0G9 1-219).
T5 construct: also called mCLDN3; mCLDN3/FS293
T5 sequence: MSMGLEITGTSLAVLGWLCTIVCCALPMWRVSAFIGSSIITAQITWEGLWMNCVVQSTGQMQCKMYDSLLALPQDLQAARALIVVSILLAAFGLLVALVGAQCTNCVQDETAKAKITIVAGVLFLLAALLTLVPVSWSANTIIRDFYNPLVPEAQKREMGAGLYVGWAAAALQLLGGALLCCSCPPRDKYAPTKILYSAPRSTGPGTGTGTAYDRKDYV
Put plainly: flow cytometry, FreeStyle 293-F transfectants expressing mouse CLDN3, anti-human IgG Alexa Fluor 647; MFI. Here is the method: as §1

The target of the next assay is T6, human CLDN9 (human, UniProt O95484 1-217).
T6 construct: also called hCLDN9; hCLDN9/BaF
T6 sequence: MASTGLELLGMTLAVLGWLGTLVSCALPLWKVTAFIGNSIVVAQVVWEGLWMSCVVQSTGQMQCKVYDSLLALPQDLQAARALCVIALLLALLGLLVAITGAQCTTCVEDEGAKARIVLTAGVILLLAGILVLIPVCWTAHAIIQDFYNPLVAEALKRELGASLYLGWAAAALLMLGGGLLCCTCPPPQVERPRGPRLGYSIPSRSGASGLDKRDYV
The assay can be described thus: flow cytometry, FreeStyle 293-F transfectants expressing human CLDN9, anti-human IgG Alexa Fluor 647; MFI. Here is the method:
as §1

Another assay has as its target T7, human CLDN3 (human, UniProt O15551 1-220).
T7 construct: also called hCLDN3; hCLDN3/BaF
T7 sequence: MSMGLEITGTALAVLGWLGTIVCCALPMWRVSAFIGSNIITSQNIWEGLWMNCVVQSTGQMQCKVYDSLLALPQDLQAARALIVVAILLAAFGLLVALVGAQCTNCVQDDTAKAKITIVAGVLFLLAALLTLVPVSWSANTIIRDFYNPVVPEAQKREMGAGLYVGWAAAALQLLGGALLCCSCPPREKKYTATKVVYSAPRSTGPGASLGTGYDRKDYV
The assay can be described thus: flow cytometry, FreeStyle 293-F transfectants expressing human CLDN3, anti-human IgG Alexa Fluor 647; MFI. Here is the method: as §1

Assay [2] concerns the target T1, human CLDN4. Put plainly: flow cytometry on hCLDN4/BaF (Ba/F3 transfectant), Alexa Fluor 488 anti-human IgG; histogram against KLH/TR01. Here is the method:
Amino acid sequence are highly conserved among CLDN3, CLDN4, CLDN6 and CLDN9. Thus we examined CLDN6 binding specificity by FACS analysis. hCLDN6/BaF, hCLDN3/BaF, hCLDN4/BaF, and hCLDN9/BaF were incubated with CS2201, CS2961, AH05/TR01 and 6PHU3/TR01 at 15 micro g/ml. KLH/TR01 generated in Example 2-3 was used as a staining control. Binding of each antibody was detected with Alexa Fluor 488-conjugated anti human IgG (Invitrogen). Dead cells were separated by eFlour 780 (Invitrogen) staining.

B1: CDA0013/TR01 (bispecific antibody, V domains shown)
VH 1: QSLEESGGRLVTPGTPLTLTCTVSGIDLNNYGVGWVRQPPGKGLEWIGYINALGSAYYASWAKGRFTISRTSTTVDLKITSPTTEDTATYFCARVRYLYIGGGGYWIDRLDLWGQGTLVTVSS
VL 1: DVVMTQTPASVEAAVGDTVTIKCQASQSISSCLSWYQQKPGQPPKLLIYYASTLASGVPSRFSGSGSGTEFTLTISGLQCDDAATYYCLGVVSYVSADGGFGGGTEVVVK
VH 2: QVQLVESGGGVVQPGGSLRLSCAASGFTFSNAWMHWVRQAPGKGLEWVAQIKDKSQNYATYVAESVKGRFTISRADSKNSIYLQMNSLKTEDTAVYYCRYVHYAAGYGVDIWGQGTTVTVSS
VL 2: DIVMTQSPLSLPVTPGEPASISCRSSQPLVHSNRNTYLHWYQQKPGQAPRLLIYKVSNRFSGVPDRFSGSGSGTDFTLKISRVEAEDVGVYYCGQGTQVPYTFGQGTKLEIK
notes: CDA0013 is rabbit-derived; IgG format by Fab arm exchange, silent Fc; also called anti-CLDN6/CD3 bispecific antibody CDA0013/TR01
On to B1, for which the binding result in the assay with human CLDN4 [1] is recorded as “no binding (tested: 10 micro g/mL)”; with mouse CLDN9, “no binding (tested: 10 micro g/mL)”; in the assay with mouse CLDN6, “binds”; in the assay with mouse CLDN4 it was “no binding (tested: 10 micro g/mL)”; with mouse CLDN3, “no binding (tested: 10 micro g/mL)”; in the assay with human CLDN9, “no binding (tested: 10 micro g/mL)”. In addition, the binding result with human CLDN3 is given as “no binding (tested: 10 micro g/mL)”.

B2: 6PHU3/TR01 (bispecific antibody, V domains shown)
VH 1: EVQLQQSGPELVKPGASMKISCKASGYSFTGYTMNWVKQSHGKNLEWIGLINPYNGGTIYNQKFKGKATLTVDKSSSTAYMELLSLTSEDSAVYYCARDYGFVLDYWGQGTTLTVSS
VL 1: DIVLTQSPSIMSVSPGEKVTITCSASSSVSYMHWFQQKPGTSPKLCIYSTSNLASGVPARFSGRGSGTSYSLTISRVAAEDAATYYCQQRSNYPPWTFGGGTKLEIK
VH 2: QVQLVESGGGVVQPGGSLRLSCAASGFTFSNAWMHWVRQAPGKGLEWVAQIKDKSQNYATYVAESVKGRFTISRADSKNSIYLQMNSLKTEDTAVYYCRYVHYAAGYGVDIWGQGTTVTVSS
VL 2: DIVMTQSPLSLPVTPGEPASISCRSSQPLVHSNRNTYLHWYQQKPGQAPRLLIYKVSNRFSGVPDRFSGSGSGTDFTLKISRVEAEDVGVYYCGQGTQVPYTFGQGTKLEIK
notes: IgG format by Fab arm exchange, silent Fc; also called anti-CLDN6/CD3 bispecific antibody 6PHU3/TR01
Turning to B2, the binding result with mouse CLDN6 is recorded as “binds”; with mouse CLDN4, “no binding (tested: 10 micro g/mL)”; in the assay with mouse CLDN3, “no binding (tested: 10 micro g/mL)”; with human CLDN3 it was “no binding (tested: 10 micro g/mL)”; with human CLDN4 [2], “no binding (tested: 15 micro g/ml)”.
